Patent publication EP0730651B1

Experiments:
[1] = target: soluble KGF receptor (FGFR(IIIb); K-sam) alkaline phosphatase fusion (FRAP) (murine) (UniProt P21803); assay: displacement of 125I-FGF-7 from soluble FGFR2(IIIb)-AP
[2] = target: soluble KGF receptor (FGFR(IIIb); K-sam) alkaline phosphatase fusion (FRAP) (murine) (UniProt P21803); assay: competition with 125I-FGF-7, receptor binding experiments like those of Example 6

UniProt P21803, sequence (P21803 22-377): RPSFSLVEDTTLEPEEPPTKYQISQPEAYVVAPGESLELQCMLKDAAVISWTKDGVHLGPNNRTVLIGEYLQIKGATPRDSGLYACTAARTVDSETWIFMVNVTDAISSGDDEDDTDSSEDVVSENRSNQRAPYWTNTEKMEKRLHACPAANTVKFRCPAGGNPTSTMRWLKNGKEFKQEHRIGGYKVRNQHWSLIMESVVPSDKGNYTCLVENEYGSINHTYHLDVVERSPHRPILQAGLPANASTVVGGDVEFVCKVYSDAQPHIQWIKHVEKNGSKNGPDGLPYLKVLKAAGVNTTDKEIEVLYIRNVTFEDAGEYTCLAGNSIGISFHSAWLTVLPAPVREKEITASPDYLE

| fold weaker binding than FGF-7 or FGF-1 [1] [times less] | fold weaker potency of competition than unlabelled FGF-7 [2] [times weaker] | Substance |
| --- | --- | --- |
| 5 | – | FGF-2LA (human FGF-2 with surface loop residues 118 to 122 replaced by the corresponding bovine FGF-1 sequence) (ligand) |
| – | 100 | FGF-2LK (FGF-2 loop mutant containing the 9-residue loop sequence Ala-Lys-Trp-Thr-His-Asn-Gly-Gly-Glu from FGF-7) (from UniProt P09038 1-117; P09038 123-155) (ligand) |
